Laboratory results: patent US20130058934A1
Residue numbers refer to the chain shown, from its start.

B1: MOR08168 Fab (Fab, V domains shown)
VH: QVQLVESGGGLVQPGGSLRLSCAASGFTFSDYVINWVRQAPGKGLEWVSGISWSGVNTHYADSVKGRFTISRDNSKNTLYLQMNSLRAEDTAVYYCARLGATANNIRYKFMDVWGQGTLVTVSS
VL: DIELTQPPSVSVAPGQTARISCSGDSLRNKVYWYQQKPGQAPVLVIYKNNRPSGIPERFSGSNSGNTATLTISGTQAEDEADYYCQSYDGQKSLVFGGGTKLTVL
B2: MOR08545 Fab (Fab, V domains shown)
VH: QVQLVESGGGLVQPGGSLRLSCAASGFTFSVNGMHWVRQAPGKGLEWVSVIDGMGHTYYADSVKGRFTISRDNSKNTLYLQMNSLRAEDTAVYYCARYDYIKYGAFDPWGQGTLVTVSS
VL: DIELTQPPSVSVAPGQTARISCSGDNIGSKYVHWYQQKPGQAPVLVIYGDSNRPSGIPERFSGSNSGNTATLTISGTQAEDEADYYCTRTSTPISGVFGGGTKLTVLG
B3: MOR06706 Fab (Fab, V domains shown)
VH: QVQLVESGGGLVQPGGSLRLSCAASGFTFSDYAIHWVRQAPGKGLEWVSGISYSGSSTHYADSVKGRFTISRDNSKNTLYLQMNSLRAEDTAVYYCARGSHGNIMAKRYFDFWGQGTLVTVSS
VL: DIELTQPPSVSVAPGQTARISCSGDNIRKKYVYWYQQKPGQAPVLVIYEDSKRPSGIPERFSGSNSGNTATLTISGTQAEDEADYYCSTADSGINNGVFGGGTKLTVL
B4: MOR06475 Fab (Fab, V domains shown)
VH: QVQLKESGPALVKPTQTLTLTCTFSGFSLSNRGGGVGWIRQPPGKALEWLAWIDWDDDKSYSTSLKTRLTISKDTSKNQVVLTMTNMDPVDTATYYCARMHLPLVFDSWGQGTLVTVSS
VL: DIVLTQSPATLSLSPGERATLSCRASQFIGSRYLAWYQQKPGQAPRLLIYGASNRATGVPARFSGSGSGTDFTLTISSLEPEDFATYYCQQYYDYPQTFGQGTKVEIK
B5: scFv08168-D7 (scFv, part only; not given: Linker and His tag, V domains shown, not shown: another chain or arm of the molecule; small tags and cut ends)
VH: B1 VH with I34M
VL: B1 VL with S21T
B6: scFv08168-D9 (scFv, part only; not given: Linker and His tag, V domains shown, not shown: another chain or arm of the molecule; small tags and cut ends)
VH: B1 VH with I34M
VL: B1 VL with G61V
B7: scFv08168-D6 (scFv, part only; not given: Linker and His tag, V domains shown, not shown: another chain or arm of the molecule; small tags and cut ends)
VH: B1 VH with I34M, V48I
VL: B1 VL

Each binder was assayed against cynomolgus LRP6 (cynomolgus) (assay: FACS on HEK293T/17 cells transiently transfected with cynomolgus LRP6).

Row | EC50 [nM] | Binder
1 | 0.88 | B1
2 | 0.3 | B2
3 | 0.46 | B3
4 | 0.22 | B4

These binders were tested against human LRP6 (human) (UniProt O75581) (assay: not given).
Chain of human LRP6 (human) (O75581 20-1613): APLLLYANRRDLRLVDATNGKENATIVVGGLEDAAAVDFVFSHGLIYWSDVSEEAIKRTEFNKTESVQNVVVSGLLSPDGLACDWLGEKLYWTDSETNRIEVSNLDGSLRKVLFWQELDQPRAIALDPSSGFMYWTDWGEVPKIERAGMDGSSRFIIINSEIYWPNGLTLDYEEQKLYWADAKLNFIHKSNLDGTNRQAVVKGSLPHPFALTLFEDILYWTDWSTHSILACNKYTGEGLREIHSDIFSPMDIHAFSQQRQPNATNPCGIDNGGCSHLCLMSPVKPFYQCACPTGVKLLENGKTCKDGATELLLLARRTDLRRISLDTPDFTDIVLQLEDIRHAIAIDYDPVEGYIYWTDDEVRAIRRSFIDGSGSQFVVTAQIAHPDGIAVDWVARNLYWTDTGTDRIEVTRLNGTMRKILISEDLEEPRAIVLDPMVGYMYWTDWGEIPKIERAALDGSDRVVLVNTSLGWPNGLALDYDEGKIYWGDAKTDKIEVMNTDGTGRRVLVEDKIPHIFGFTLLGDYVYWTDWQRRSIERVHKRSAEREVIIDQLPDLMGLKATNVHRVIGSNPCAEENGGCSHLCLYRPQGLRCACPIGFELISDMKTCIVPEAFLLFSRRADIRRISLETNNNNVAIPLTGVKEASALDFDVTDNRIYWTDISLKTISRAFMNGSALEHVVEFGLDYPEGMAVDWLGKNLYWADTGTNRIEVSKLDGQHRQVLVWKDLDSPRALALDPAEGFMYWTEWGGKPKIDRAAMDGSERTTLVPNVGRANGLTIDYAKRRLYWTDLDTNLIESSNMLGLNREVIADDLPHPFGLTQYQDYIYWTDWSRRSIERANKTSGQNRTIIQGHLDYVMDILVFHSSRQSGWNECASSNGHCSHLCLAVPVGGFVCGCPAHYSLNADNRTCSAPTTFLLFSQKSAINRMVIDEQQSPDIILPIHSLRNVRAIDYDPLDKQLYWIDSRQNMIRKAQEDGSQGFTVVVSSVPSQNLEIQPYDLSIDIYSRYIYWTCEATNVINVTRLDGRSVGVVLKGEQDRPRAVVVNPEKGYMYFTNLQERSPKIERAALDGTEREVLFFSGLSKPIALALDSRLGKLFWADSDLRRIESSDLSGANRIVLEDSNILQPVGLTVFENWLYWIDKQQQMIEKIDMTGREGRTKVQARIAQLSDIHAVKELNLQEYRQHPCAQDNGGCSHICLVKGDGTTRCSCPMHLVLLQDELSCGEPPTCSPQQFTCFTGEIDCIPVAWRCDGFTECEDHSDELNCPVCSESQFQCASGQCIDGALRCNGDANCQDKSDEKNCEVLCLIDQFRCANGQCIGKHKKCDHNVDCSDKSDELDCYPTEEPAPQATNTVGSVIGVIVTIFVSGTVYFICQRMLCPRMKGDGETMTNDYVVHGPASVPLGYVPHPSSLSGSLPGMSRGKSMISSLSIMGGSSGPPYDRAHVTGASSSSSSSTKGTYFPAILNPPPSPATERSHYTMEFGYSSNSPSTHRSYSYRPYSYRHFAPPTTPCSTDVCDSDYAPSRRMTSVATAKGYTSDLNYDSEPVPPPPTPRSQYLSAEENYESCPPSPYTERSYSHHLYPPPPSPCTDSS

Row | IC50 by STF assay for Wnt1 inhibition [nM] | Binder
5 | 4.81 | B5
6 | 11.1 | B6
7 | 0.74 | B7
